The target of the assay is T4 tail-fiber protein P37 SΔ1ras2 (gene 37 SΔ1 deletion with the H-ras mAb epitope inserted at the junction), on SΔ1ras2 phage (bacteriophage T4; bacteriophage T4 with human H-ras insert) (UniProt P03744). The assay is described as follows: cell-based or functional assay.

The source of these data is patent publication US20080093219A1.

In turn, rat monoclonal IgG antibody Y13-259 yielded a phage inactivated after mAb and anti-rat IgG serum of 85%; a phage inactivated, control treatment (mAb with buffer only) of 99.8%; a phage inactivation, time course of mAb treatment of 99.9%.
